# Results published in patent US20110311550A1 (Scripps Research, published 2011).
# B1: MAb AR2A (antibody, V domains shown)
# VH: LEQSGAEMKKPGASLKVSCKTSGYTFDDYGVTWVRQAPGQGLEWMGWISAYSGNTFYARKFQGRVTMTTDPSTRTAYMELRSLRSDDTAVYFCARDRGLAINGVVFPYFGLDVWGQGTTVTVSS
# VL: ELTQSPVSLPVTPGEPASISCRSSQSLLHSNGNHYLDWYLQKPGQSPQLLMYLGSNRASGVPDRFSGSGSGTDFTLKISRVEAEDVGVYYCMQGLQTPWTFGQGTKVEIKR
# notes: also called IgG1 of Fab G
# B2: MAb AR3C (antibody, V domains shown)
# VH: LEQSGAEVKKPGSSVKVSCETSGGTLDNYALNWVRQAPGQGLEWIGGVVPLFGTTRNAQKFQGRVTISDDKSTGTGHMELRSLRSEDTAVYYCVRSVTPRYCGGGFCYGEFDYWGQGTLVTVSS
# VL: ELTQSPATLSVSPGERATLSCRASQSVSSNLAWYQQKPGQAPRLLIYGASTRATGIPARFSGSGSGTEFTLTVSRLEPEDSAVYFCQQYYRSPLTFGGGTKVEIKR
# notes: also called IgG1 of Fab H3
# B3: MAb AR3D (antibody, V domains shown)
# VH: LEQSGAEVKKPGSSVKVSCKASGDTFRSYVITWARQAPGQGLEWMGAIIPFFGTTNLAQKFQGRVTITADESTKTVYMDLSSLRSDDTAVYYCAKAGDLSVGGVLAGGVPHLRHFDPWGQGTLVTVSS
# VL: ELTQSPGTLSLSPGERATLSCRAGQTVASNSLAWYQHKPGQAPRLLIYGASIRASGIPDRFSGSGSGTDFTLTISRLEPEDFAVYYCQQYGLSSTFGQGTRLEIKR
# notes: also called IgG1 of Fab L4
# B4: MAb AR1B (antibody, V domains shown)
# VH: LESGGGLVQPGGSLRLSCEASGYYFSSFAMSWVRQTPGKGLEWVSSIAGGTLGRTSYRDSVKGRFTISRDNSKNTVFLHMNNLRPEDTAVYYCAKDPLLFAGGPNWFDHWGQGTLVTVSS
# VL: not shown
# notes: also called IgG1 of Fab D1
# B5: MAb AR1A (antibody, V domains shown)
# VH: LEQSGAEVKKPGSSVKVSCRASGSPYSSYTITWVRQAPGQGLEWMGGIILMTGKANYAQKFQGRVTITADRATATAYMEMSSLTSDDTAIYYCARDPYVYAGDDVRSLSRWGQGTPVIVSS
# VL: not shown
# notes: also called IgG1 of Fab B2
# Molecular target: T1, vaccinia-expressed E1E2 complex, isolate HCV-1 (genotype 1a) (hepatitis C virus, isolate HCV-1, UniProt P26664 192-383; P26664 384-746)
# Assay: competition ELISA on HCV-1 E1E2; competitor m27 (3/11)
row,Binder,% residual binding
1,B1,94%
2,B2,44%
3,B3,37%
4,B4,61%
5,B5,66%

# Molecular target: T1, vaccinia-expressed E1E2 complex, …
# Assay: competition ELISA on HCV-1 E1E2; competitor m3 (AR2A)
row,Binder,% residual binding
1,B1,15%
2,B2,83%
3,B3,75%
4,B4,89%
5,B5,100%

# Molecular target: T1, vaccinia-expressed E1E2 complex, …
# Assay: competition ELISA on HCV-1 E1E2; competitor m26 (AP33)
row,Binder,% residual binding
1,B1,63%
2,B2,33%
3,B3,27%
4,B4,69%
5,B5,102%

# Molecular target: T1, vaccinia-expressed E1E2 complex, …
# Assay: competition ELISA on HCV-1 E1E2; competitor m5 (AR3B)
row,Binder,% residual binding
1,B1,92%
2,B2,12%
3,B3,15%
4,B4,80%
5,B5,53%

# Molecular target: T1, vaccinia-expressed E1E2 complex, …
# Assay: competition ELISA on HCV-1 E1E2; competitor m33 (9/75)
row,Binder,% residual binding
1,B1,82%
2,B2,51%
3,B3,53%
4,B4,38%
5,B5,24%

# Molecular target: T1, vaccinia-expressed E1E2 complex, …
# Assay: competition ELISA on HCV-1 E1E2; competitor m32 (AP320)
row,Binder,% residual binding
1,B1,70%
2,B2,81%
3,B3,77%
4,B4,83%
5,B5,84%

# Molecular target: T2, E1E2 complex of HCV isolate H77 (genotype 1a), wild type (HCV isolate H77, UniProt P27958 192-383; P27958 384-746)
# Assay: competition ELISA on H77 E1E2; competitor m39 (Fab N3)
row,Binder,% residual binding
1,B1,69%
2,B2,92%
3,B4,92%
4,B5,71%

# Molecular target: T1, vaccinia-expressed E1E2 complex, …
# Assay: competition ELISA on HCV-1 E1E2; competitor m24 (7/59)
row,Binder,% residual binding
1,B1,99%
2,B2,95%
3,B4,77%
4,B5,70%

# Molecular target: T1, vaccinia-expressed E1E2 complex, …
# Assay: competition ELISA on HCV-1 E1E2; competitor m6 (AR3C)
row,Binder,% residual binding
1,B1,86%
2,B2,8%
3,B3,13%
4,B4,66%
5,B5,37%

# Molecular target: T1, vaccinia-expressed E1E2 complex, …
# Assay: competition ELISA on HCV-1 E1E2; competitor m19 (CBH-4B)
row,Binder,% residual binding
1,B1,87%
2,B2,99%
3,B3,97%
4,B4,106%
5,B5,102%

# Molecular target: T2, E1E2 complex of HCV isolate H77 …
# Assay: competition ELISA on H77 E1E2; competitor m38 (Fab N2)
row,Binder,% residual binding
1,B1,86%
2,B2,116%
3,B3,98%
4,B4,100%
5,B5,82%

# Molecular target: H77 E1E2 mutant T526A (HCV isolate H77, UniProt P27958 192-383; P27958 384-746)
# Assay: ELISA, alanine mutant E1E2
row,Binder,binding vs wild-type E1E2
1,B1,101%
2,B3,135%
3,B4,48%
4,B5,81%

# Molecular target: H77 E1E2 mutant G530A (HCV isolate H77, UniProt P27958 192-383; P27958 384-746)
# Assay: ELISA, alanine mutant E1E2
row,Binder,binding vs wild-type E1E2
1,B1,53%
2,B3,24%
3,B4,50%
4,B5,227%

# Molecular target: H77 E1E2 mutant P545A (HCV isolate H77, UniProt P27958 192-383; P27958 384-746)
# Assay: ELISA, alanine mutant E1E2
row,Binder,binding vs wild-type E1E2
1,B1,106%
2,B3,307%
3,B4,20%
4,B5,74%

# Molecular target: T1, vaccinia-expressed E1E2 complex, …
# Assay: competition ELISA on HCV-1 E1E2; competitor m22 (CBH-7)
row,Binder,% residual binding
1,B1,17%
2,B2,39%
3,B3,33%
4,B4,20%
5,B5,16%

# Molecular target: T1, vaccinia-expressed E1E2 complex, …
# Assay: competition ELISA on HCV-1 E1E2; competitor m7 (AR3D)
row,Binder,% residual binding
1,B1,75%
2,B2,12%
3,B3,14%
4,B4,84%
5,B5,54%

# Molecular target: T1, vaccinia-expressed E1E2 complex, …
# Assay: competition ELISA on HCV-1 E1E2; competitor m1 (AR1A)
row,Binder,% residual binding
1,B1,76%
2,B2,34%
3,B3,43%
4,B4,15%
5,B5,15%

# Molecular target: T1, vaccinia-expressed E1E2 complex, …
# Assay: competition ELISA on HCV-1 E1E2; competitor m30 (7/16B)
row,Binder,% residual binding
1,B1,95%
2,B2,99%
3,B3,94%
4,B4,91%
5,B5,86%

# Molecular target: T1, vaccinia-expressed E1E2 complex, …
# Assay: competition ELISA on HCV-1 E1E2; competitor m29 (2/69A)
row,Binder,% residual binding
1,B1,82%
2,B2,68%
3,B3,56%
4,B4,85%
5,B5,86%

# Molecular target: T1, vaccinia-expressed E1E2 complex, …
# Assay: competition ELISA on HCV-1 E1E2; competitor m28 (1/39)
row,Binder,% residual binding
1,B1,90%
2,B2,83%
3,B3,80%
4,B4,89%
5,B5,84%

# Molecular target: T1, vaccinia-expressed E1E2 complex, …
# Assay: competition ELISA on HCV-1 E1E2; competitor m20 (CBH-2)
row,Binder,% residual binding
1,B1,93%
2,B2,65%
3,B3,51%
4,B4,98%
5,B5,83%

# Molecular target: T1, vaccinia-expressed E1E2 complex, …
# Assay: competition ELISA on HCV-1 E1E2; competitor m4 (AR3A)
row,Binder,% residual binding
1,B1,76%
2,B2,9%
3,B3,13%
4,B4,76%
5,B5,44%
